Measured values taken from patent publication US20140377289A1, “Metallodrugs Having Improved Pharmacological Properties, and Methods of Manufacture and Use Thereof” (MetalloPharm, LLC, priority 2011, published 2014).
Where no end group is shown, it is not given here.

Legend:
[1] = target: HCV protease (hepatitis C virus (HCV)); assay: affinity of metallopeptide for HCV protease; method not described
[2] = target: Recombinant human somatic ACE (sACE-1: Leu30-Leu1261, with C-terminal His tag) (human) (UniProt P12821); assay: cell-based or functional assay
[3] = target: Recombinant human somatic ACE (sACE-1: Leu30-Leu1261, with C-terminal His tag) (human) (UniProt P12821); assay: affinity calculated from the IC50 of sACE-1 inhibition (fluorogenic substrate cleavage, 37 C, pH 7.4)

Recombinant human somatic ACE (sACE-1: Leu30-Leu1261, with C-terminal His tag) (human), sequence (P12821 30-1261 limits assumed): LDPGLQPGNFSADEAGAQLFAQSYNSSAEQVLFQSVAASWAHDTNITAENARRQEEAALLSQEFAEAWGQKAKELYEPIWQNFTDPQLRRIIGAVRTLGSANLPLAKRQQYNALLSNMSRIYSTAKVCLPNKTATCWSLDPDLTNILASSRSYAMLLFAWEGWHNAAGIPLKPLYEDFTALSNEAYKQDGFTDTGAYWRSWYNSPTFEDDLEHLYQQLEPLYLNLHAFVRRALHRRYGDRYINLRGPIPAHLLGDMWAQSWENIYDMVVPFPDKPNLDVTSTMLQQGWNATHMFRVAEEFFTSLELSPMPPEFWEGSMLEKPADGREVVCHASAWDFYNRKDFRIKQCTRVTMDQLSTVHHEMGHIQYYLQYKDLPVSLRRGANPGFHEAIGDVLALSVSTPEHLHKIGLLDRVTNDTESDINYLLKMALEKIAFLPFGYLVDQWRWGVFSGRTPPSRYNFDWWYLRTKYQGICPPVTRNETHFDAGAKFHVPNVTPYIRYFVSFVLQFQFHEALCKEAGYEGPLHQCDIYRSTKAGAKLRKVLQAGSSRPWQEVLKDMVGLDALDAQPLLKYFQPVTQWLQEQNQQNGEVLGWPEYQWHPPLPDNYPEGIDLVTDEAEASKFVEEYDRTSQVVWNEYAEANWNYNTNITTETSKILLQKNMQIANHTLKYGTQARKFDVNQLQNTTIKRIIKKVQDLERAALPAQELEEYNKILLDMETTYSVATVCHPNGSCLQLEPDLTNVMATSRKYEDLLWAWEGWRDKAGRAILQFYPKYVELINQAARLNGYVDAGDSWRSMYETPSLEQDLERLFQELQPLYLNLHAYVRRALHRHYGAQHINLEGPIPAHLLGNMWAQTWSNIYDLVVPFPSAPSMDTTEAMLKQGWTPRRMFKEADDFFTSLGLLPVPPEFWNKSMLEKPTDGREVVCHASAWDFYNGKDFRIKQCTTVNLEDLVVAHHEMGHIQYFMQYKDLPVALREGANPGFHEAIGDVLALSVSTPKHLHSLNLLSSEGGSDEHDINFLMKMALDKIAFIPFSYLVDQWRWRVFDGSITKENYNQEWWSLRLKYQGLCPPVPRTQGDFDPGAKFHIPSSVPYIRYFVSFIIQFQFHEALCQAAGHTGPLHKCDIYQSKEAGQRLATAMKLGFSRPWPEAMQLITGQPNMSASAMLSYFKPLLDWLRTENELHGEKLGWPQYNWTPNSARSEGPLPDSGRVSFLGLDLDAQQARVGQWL

IC50's (nM) for sACE-1 inhibition (fluorogenic substrate cleavage) [2] [nM] | Ka [3] [M⁻¹] | Substance | affinity [1] [µM]
 |  | GGHDEMEEC | 48
17000 | 59000 | [Cu-GGH]^1- (peptide) | 
